Measured values reported in paper PMC8639918, “Mechanism of phosphate sensing and signaling revealed by rice SPX1-PHR2 complex structure” (Nature Communications, 2021).
Where a chain is given by its changes, count along the chain named. In names and notes the source's numbering stands. Several values for one entry are separate records, joined by “and”; a condition that tells them apart may be missing. Identical values can stand only once.

Assays:
SPX1^1–198 E135A = target: T1, SPX1^1–198 E135A (rice, UniProt Q69XJ0 1-198, E135A); assay: SEC; gel filtration of SPX1^1–198 and PHR2^248–380 and their mutants, buffer C (20 mM Tris/HCl pH 8.0, 200 mM NaCl, 1 mM TCEP) with or without InsP6 as the methods put it; samples incubated at 4 °C for 12 h (Figs. 2c, 5b, Supplementary Fig. 3a–d); settings: both partners purified
T1 construct: SPX1 (OsSPX1), rice, residues 1-198; not shown: His10, N-terminal, cleaved; MsyB, N-terminal, cleaved
T1 sequence (looked up): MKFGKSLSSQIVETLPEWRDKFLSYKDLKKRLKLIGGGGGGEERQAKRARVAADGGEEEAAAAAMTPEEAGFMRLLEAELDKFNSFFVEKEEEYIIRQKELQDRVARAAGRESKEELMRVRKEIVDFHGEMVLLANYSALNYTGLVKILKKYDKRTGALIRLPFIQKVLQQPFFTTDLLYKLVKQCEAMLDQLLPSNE

SPX1^1–198 Y180A = target: T2, SPX1^1–198 Y180A (rice, UniProt Q69XJ0 1-198, Y180A); assay: as above; settings: both partners purified
T2 construct: SPX1 (OsSPX1), rice, residues 1-198; not shown: His10, N-terminal, cleaved; MsyB, N-terminal, cleaved
T2 sequence (looked up): T1 sequence (looked up) with A135E, Y180A

SPX1^1–198 = target: T3, SPX1^1–198 (rice, UniProt Q69XJ0 1-198); assay: as above; settings: both partners purified
T3 construct: SPX1 (OsSPX1), rice, residues 1-198; also called SPX1 (residues 1–198); not shown: His10, N-terminal, cleaved; MsyB, N-terminal, cleaved
T3 sequence (looked up): T1 sequence (looked up) with A135E

[1] = target: the molecule itself; assay: SEC-MALS; Superdex 200 Increase 10/300 GL, buffer C (20 mM Tris/HCl pH 8.0, 200 mM NaCl, 1 mM TCEP) without InsP6, 2–3 mg/ml, 4 °C
[2] = target: T4, SPX1^1–259 (C-terminally truncated fragment of rice SPX1) (rice, UniProt Q69XJ0 1-259); assay: SEC-MALS; Superdex 200 Increase 10/300 GL, buffer C (20 mM Tris/HCl pH 8.0, 200 mM NaCl, 1 mM TCEP) with 1 mM InsP6, 2–3 mg/ml, 4 °C; settings: both partners purified
T4 construct: also called OsSPX1; not shown: His10, N-terminal, cleaved; MsyB, N-terminal, cleaved
T4 sequence (looked up): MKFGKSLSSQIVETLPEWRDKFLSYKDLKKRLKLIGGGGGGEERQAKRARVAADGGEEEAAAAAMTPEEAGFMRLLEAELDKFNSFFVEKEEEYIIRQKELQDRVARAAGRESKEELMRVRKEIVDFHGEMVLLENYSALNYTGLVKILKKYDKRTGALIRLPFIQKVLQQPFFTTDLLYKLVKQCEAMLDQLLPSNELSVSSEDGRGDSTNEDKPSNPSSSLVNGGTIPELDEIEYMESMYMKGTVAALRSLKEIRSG

[3] = target: T4, SPX1^1–259 (C-terminally truncated …); assay: ITC; PHR2^3M at 120 μM injected into SPX1^1–259 at 10 μM, in presence or absence of 1 mM InsP6; 25 °C; buffer F (20 mM HEPES/NaOH pH 7.5, 200 mM NaCl, 2 mM β-mercaptoethanol); settings: both partners purified

B1: PHR2^248–380 (domain or fragment)
chain: not shown
notes: PHR2 (OsPHR2), rice, residues 248-380; also called PHR2 (residues 248–380); not shown: His10, N-terminal, cleaved; MsyB, N-terminal, cleaved
B1: binds (SPX1^1–198 E135A); binds (SPX1^1–198 Y180A); binds (SPX1^1–198).

B2: PHR2^248–380 E257A (domain or fragment)
chain: not shown
notes: PHR2 (OsPHR2), rice, residues 248-380; also called PHR2 E257 mutant; not shown: His10, N-terminal, cleaved; MsyB, N-terminal, cleaved
B2: binds (SPX1^1–198).

B3: PHR2^248–380 E353A (domain or fragment)
chain: not shown
notes: PHR2 (OsPHR2), rice, residues 248-380; not shown: His10, N-terminal, cleaved; MsyB, N-terminal, cleaved
B3: binds (SPX1^1–198).

B4: PHR2^248–380 E363A (domain or fragment)
chain: not shown
notes: as for B3
B4: binds (SPX1^1–198).

B5: PHR2^248–380 R248A (domain or fragment)
chain: not shown
notes: PHR2 (OsPHR2), rice, residues 248-380; also called PHR2 R248 mutant; not shown: His10, N-terminal, cleaved; MsyB, N-terminal, cleaved
B5: binds (SPX1^1–198).

B6: PHR2^230–426 (MYB and CC domain-containing fragment of rice PHR2) (domain or fragment)
chain: not shown
notes: Alone in solution a mixture of dimer and tetramer; one copy in the complex with SPX1; not shown: His10, N-terminal, cleaved; MsyB, N-terminal, cleaved
With B6 the “stoichiometry N” value [1] was 2 and 4 and the “stoichiometry N” value [2] was 1.

B7: PHR2^(230–426 L348A/L358A/I362A) (domain or fragment)
chain: not shown
notes: also called PHR2^3M; PHR2 monomeric mutant; not shown: His10, N-terminal, cleaved; MsyB, N-terminal, cleaved
B7 showed a Kd [3] of ~170 nM.

B8: Arabidopsis PHR1^227–358 (MYB and CC domains only) (domain or fragment)
chain: not shown
notes: The methods describe only SPX1 and PHR2 constructs; also called AtPHR1
In the case of B8, the “stoichiometry N” value [1] is reported as 2.
